# Results published in the supplement of paper PMC9112550, “Optimization of the antimicrobial peptide Bac7 by deep mutational scanning” (BMC Biology, 2022).
# System: Escherichia coli TOP10
# Assay: shrunken log2 fold change of peptide-encoding DNA abundance (4.5 h post-induction vs induction); higher = less antimicrobial activity (less host growth inhibition)
# Conditions: time post-induction: 4.5 h; library: site-saturation at positions 5, 18, 19, 20
# 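Also: peptides expressed intracellularly from a pBAD plasmid library in pooled LB shake-flask culture, induced with 0.3% L-arabinose, DNA abundance read by NGS, three biological replicates, DESeq2 with apeglm shrinkage.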
row,Sequence,shrunken log2 fold change
1,RRIRMRPPRLPRPRPRPTHKPRP,0.275
2,RRIRMRPPRLPRPRPRPTKMPRP,0.745
3,RRIRMRPPRLPRPRPRPTMAPRP,1.03
4,RRIRMRPPRLPRPRPRPTMCPRP,0.674
5,RRIRMRPPRLPRPRPRPTMLPRP,0.0475
6,RRIRMRPPRLPRPRPRPTNFPRP,-0.0912
7,RRIRMRPPRLPRPRPRPTQDPRP,1.24
8,RRIRMRPPRLPRPRPRPTQLPRP,0.668
9,RRIRMRPPRLPRPRPRPTTDPRP,0.815
10,RRIRMRPPRLPRPRPRPTTPPRP,1.15
11,RRIRMRPPRLPRPRPRPTTRPRP,0.832
12,RRIRMRPPRLPRPRPRPTVAPRP,0.269
13,RRIRMRPPRLPRPRPRPTVGPRP,0.146
14,RRIRMRPPRLPRPRPRPTWGPRP,0.564
15,RRIRMRPPRLPRPRPRPTYHPRP,-0.242
16,RRIRMRPPRLPRPRPRPTYIPRP,-1.08
17,RRIRMRPPRLPRPRPRPVAAPRP,2.1
18,RRIRMRPPRLPRPRPRPVACPRP,0.122
19,RRIRMRPPRLPRPRPRPVAHPRP,0.148
20,RRIRMRPPRLPRPRPRPVAKPRP,1.43
21,RRIRMRPPRLPRPRPRPVAYPRP,0.214
22,RRIRMRPPRLPRPRPRPVCFPRP,0.126

row,Sequence,shrunken log2 fold change
1,RRIRMRPPRLPRPRPRPVFKPRP,-0.111
2,RRIRMRPPRLPRPRPRPVFPPRP,0.0941
3,RRIRMRPPRLPRPRPRPVIDPRP,0.0403
4,RRIRMRPPRLPRPRPRPVLAPRP,0.493
5,RRIRMRPPRLPRPRPRPVMFPRP,0.199
6,RRIRMRPPRLPRPRPRPVNNPRP,-0.0848
7,RRIRMRPPRLPRPRPRPVNQPRP,-0.0449
8,RRIRMRPPRLPRPRPRPVNSPRP,0.00706
9,RRIRMRPPRLPRPRPRPVPYPRP,0.193
10,RRIRMRPPRLPRPRPRPVQSPRP,0.206
11,RRIRMRPPRLPRPRPRPVQYPRP,0.0273
12,RRIRMRPPRLPRPRPRPVRDPRP,0.882
13,RRIRMRPPRLPRPRPRPVRFPRP,0.725
14,RRIRMRPPRLPRPRPRPVRMPRP,0.132
15,RRIRMRPPRLPRPRPRPVSMPRP,0.382
16,RRIRMRPPRLPRPRPRPVTDPRP,-0.0129
17,RRIRMRPPRLPRPRPRPVWPPRP,1.07
18,RRIRMRPPRLPRPRPRPVWVPRP,0.0789
19,RRIRMRPPRLPRPRPRPVYGPRP,-0.294
20,RRIRMRPPRLPRPRPRPVYLPRP,-0.683
21,RRIRMRPPRLPRPRPRPWEIPRP,-0.00146
22,RRIRMRPPRLPRPRPRPWEQPRP,0.0405

row,Sequence,shrunken log2 fold change
1,RRIRMRPPRLPRPRPRPWFWPRP,0.221
2,RRIRMRPPRLPRPRPRPWGMPRP,0.187
3,RRIRMRPPRLPRPRPRPWHAPRP,0.098
4,RRIRMRPPRLPRPRPRPWHNPRP,-0.0135
5,RRIRMRPPRLPRPRPRPWHTPRP,0.0985
6,RRIRMRPPRLPRPRPRPWIGPRP,-0.0941
7,RRIRMRPPRLPRPRPRPWKIPRP,-0.0114
8,RRIRMRPPRLPRPRPRPWLFPRP,0.457
9,RRIRMRPPRLPRPRPRPWMDPRP,-0.0276
10,RRIRMRPPRLPRPRPRPWMIPRP,-0.136
11,RRIRMRPPRLPRPRPRPWPGPRP,0.528
12,RRIRMRPPRLPRPRPRPWRCPRP,0.0452
13,RRIRMRPPRLPRPRPRPWRLPRP,-0.0743
14,RRIRMRPPRLPRPRPRPWRYPRP,0.166
15,RRIRMRPPRLPRPRPRPWTKPRP,-0.0384
16,RRIRMRPPRLPRPRPRPWVHPRP,0.031
17,RRIRMRPPRLPRPRPRPWVPPRP,-0.0184
18,RRIRMRPPRLPRPRPRPWWLPRP,0.0657
19,RRIRMRPPRLPRPRPRPWYSPRP,-0.427
20,RRIRMRPPRLPRPRPRPWYYPRP,-0.0257
21,RRIRMRPPRLPRPRPRPYACPRP,-0.0298
22,RRIRMRPPRLPRPRPRPYAHPRP,0.013

row,Sequence,shrunken log2 fold change
1,RRIRMRPPRLPRPRPRPYAPPRP,-0.24
2,RRIRMRPPRLPRPRPRPYDMPRP,-0.0585
3,RRIRMRPPRLPRPRPRPYDWPRP,-0.133
4,RRIRMRPPRLPRPRPRPYGWPRP,0.0956
5,RRIRMRPPRLPRPRPRPYITPRP,-0.393
6,RRIRMRPPRLPRPRPRPYKLPRP,0.00411
7,RRIRMRPPRLPRPRPRPYKPPRP,0.0559
8,RRIRMRPPRLPRPRPRPYMSPRP,-0.00176
9,RRIRMRPPRLPRPRPRPYNEPRP,-0.811
10,RRIRMRPPRLPRPRPRPYNNPRP,-0.4
11,RRIRMRPPRLPRPRPRPYPLPRP,-0.141
12,RRIRMRPPRLPRPRPRPYPWPRP,-0.274
13,RRIRMRPPRLPRPRPRPYQHPRP,0.0551
14,RRIRMRPPRLPRPRPRPYQIPRP,-0.0607
15,RRIRMRPPRLPRPRPRPYRHPRP,0.0311
16,RRIRMRPPRLPRPRPRPYSRPRP,-0.253
17,RRIRMRPPRLPRPRPRPYTHPRP,-0.174
18,RRIRMRPPRLPRPRPRPYTRPRP,-0.013
19,RRIRMRPPRLPRPRPRPYYLPRP,-0.326
20,RRIRMRPPRLPRPRPRPYYQPRP,-0.856
21,RRIRNRPPRLPRPRPRPAAPPRP,0.331
22,RRIRNRPPRLPRPRPRPAARPRP,0.161

row,Sequence,shrunken log2 fold change
1,RRIRNRPPRLPRPRPRPACDPRP,-0.00482
2,RRIRNRPPRLPRPRPRPACYPRP,-0.265
3,RRIRNRPPRLPRPRPRPADFPRP,0.0143
4,RRIRNRPPRLPRPRPRPADYPRP,-0.24
5,RRIRNRPPRLPRPRPRPAEHPRP,-0.201
6,RRIRNRPPRLPRPRPRPAGMPRP,-0.126
7,RRIRNRPPRLPRPRPRPAHWPRP,0.142
8,RRIRNRPPRLPRPRPRPAITPRP,0.134
9,RRIRNRPPRLPRPRPRPAKLPRP,-0.153
10,RRIRNRPPRLPRPRPRPALAPRP,0.1
11,RRIRNRPPRLPRPRPRPAMFPRP,-0.204
12,RRIRNRPPRLPRPRPRPAMRPRP,0.842
13,RRIRNRPPRLPRPRPRPANSPRP,-0.153
14,RRIRNRPPRLPRPRPRPAPHPRP,0.227
15,RRIRNRPPRLPRPRPRPAQNPRP,0.861
16,RRIRNRPPRLPRPRPRPAQVPRP,0.157
17,RRIRNRPPRLPRPRPRPARCPRP,0.319
18,RRIRNRPPRLPRPRPRPARMPRP,0.991
19,RRIRNRPPRLPRPRPRPATSPRP,-0.214
20,RRIRNRPPRLPRPRPRPAVRPRP,0.2
21,RRIRNRPPRLPRPRPRPAWCPRP,0.0129
